{"source": "paper PMC12170907", "about": "(2025)", "binders": {"B1": {"name": "3× HA-tagged FabHBC (Fab, V domains shown)", "VH": "ELQLVESGGGWVQPGGSQRLSCAASGRIFRSFYMSWVRQAPGKGLEWVATINQDGSEKLYVDSVKGRFTISRDNAKNSLFLQMNNLRVEDTAVYYCAAWSGNSGGMDVWGQGTTVSVSS", "VL": "SYELTQPPSVSVSPGQTVSIPCSGDKLGNKNVCWFQHKPGQSPVLVIYEVKYRPSGIPERFSGSNSGNTATLTISGTQAMDEAAYFCQTWDSTTVVFGGGTRLTVL"}}, "target": "Superfolder-GFP-tagged M-HBsAg (serotype ayw, genotype D3) (Hepatitis B virus (serotype ayw, …))", "experiment": "ELISA"}
{"binder": "B1", "values": [{"measurement": "Kd", "result": 0.103, "unit": "nM"}]}
